From paper PMC12808120

Columns and labels:
IGF2BP3 (recombinant) [1] = molecular target: IGF2BP3 (recombinant) (UniProt O00425); experiment: filter binding; details: FBA/EMSA: 10 mM Tris-Cl pH 7.5, 50 mM KCl, 1 mM EDTA, 0.05% Triton X, 5% glycerol, 1 mM DTT, 37 C 20 min, pull-down: lysate mixed 1:1 with 2x TENT (100 mM Tris …)
IGF2BP3 (recombinant) [2] = molecular target: IGF2BP3 (recombinant) (UniProt O00425); experiment: EMSA; details: no binding up to 100 nM; Kd >>100 nM; FBA/EMSA: 10 mM Tris-Cl pH 7.5, 50 mM KCl, 1 mM EDTA, 0.05% Triton X, 5% glycerol, 1 mM DTT, 37 C 20 min; pull-down: lysate mixed 1:1 with 2x TENT (100 mM Tris …)

IGF2BP3 (recombinant), sequence (O00425 whole entry): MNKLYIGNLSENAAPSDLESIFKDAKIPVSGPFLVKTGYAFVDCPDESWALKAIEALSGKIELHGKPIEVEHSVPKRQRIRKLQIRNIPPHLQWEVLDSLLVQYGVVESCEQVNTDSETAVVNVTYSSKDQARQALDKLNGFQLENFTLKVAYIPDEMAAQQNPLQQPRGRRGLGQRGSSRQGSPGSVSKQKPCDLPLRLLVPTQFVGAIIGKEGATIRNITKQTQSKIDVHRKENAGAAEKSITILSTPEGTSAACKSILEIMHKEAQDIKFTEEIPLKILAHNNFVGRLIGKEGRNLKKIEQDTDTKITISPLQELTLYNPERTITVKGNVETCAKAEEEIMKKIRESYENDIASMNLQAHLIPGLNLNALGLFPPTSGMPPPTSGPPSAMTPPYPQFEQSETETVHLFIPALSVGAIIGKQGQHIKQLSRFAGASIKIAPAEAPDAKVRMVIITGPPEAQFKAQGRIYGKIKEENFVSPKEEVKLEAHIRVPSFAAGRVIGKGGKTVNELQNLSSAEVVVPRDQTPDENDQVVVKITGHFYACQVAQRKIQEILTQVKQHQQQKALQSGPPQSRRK

Substance	Kd (IGF2BP3 (recombinant) [1]) [nM]	Kd (IGF2BP3 (recombinant) [1]; no binding up to 100 nM, Kd >>100 nM) [nM]	Kd (IGF2BP3 (recombinant) [2]) [nM]
FMR1-5'UTR RNA with 16 CGG repeats (FMR1-16CGG)	3.15	–	–
UAAUAAUAAUAAUAAUAAUAAUAAUAAUAAUAAUAAUAAUAAUAAUAAUAAUAAUAAUAA [(UAA)20 RNA]	–	> 100	> 100
